Assays:
[1] = system: PCSK9-mCherry internalization; test: PCSK9-mCherry internalization in LDLR-EGFP transfected HepG2 cells, confocal microscopy; assay type: cell-based, human; details: 10 nM recombinant protein, HepG2, overnight, versus control
Experimental: (§1) FIG. 5: SEQ ID NO. 67 blocks PCSK9 internalization and LDLR degradation. Recombinant SEQ ID NO. 67 was added to conditioned media obtained from HEK293 transfected with PCSK9-mCherry or in DMEM together with recombinant human PCSK9, rotated 4 h at 4° C. and added overnight on HepG2 cells as indicated. (a) Following 24 h post-transfection with LDLR-EGFP cDNA (SEQ. ID. NO. 69), HepG2 cells were incubated with PCSK9-mCherry without (−) or with 10 nM SEQ ID NO. 67. Fluorescent proteins were visualized in fixed cells by confocal microscopy. (b) Cells were incubated without or with 25 nM PCSK9 alone or with 0, 10, 25 or 100 nM SEQ ID NO. 67. Total LDLR, SEQ ID NO. 67, PCSK9 and β-actin protein levels were analyzed by immunoblotting in cell lysates and conditioned media as indicated. Data are representative of at least three independent experiments.
Huh-7 cells were washed three times with PBS, fixed with Bouin's solution (0.9% picric acid, 9% paraformaldehyde, 5% acetic acid/PBS) for 15 min. Following extensive PBS washes, cells were permeabilized with 0.1% Triton X-100/PBS for 10 min and incubated with 150 mM glycine to stabilize the aldehydes. […]

[2] = system: PCSK9-induced LDLR degradation; test: PCSK9-induced LDLR degradation in HepG2 cells, extracellular addition, immunoblot; assay type: cell-based, human
Experimental: as §1
FIG. 7: SEQ ID NO. 6 prevents PCSK9-induced LDLR degradation. (a) Left; Coomassie staining of purified recombinant SEQ ID NO. 6 and PCSK9 separated by SDS-PAGE is shown. Right; HepG2 cells were incubated in DMEM without or with 0, 25, 100 or 250 nM SEQ ID NO. 6 alone or in presence of recombinant PCSK9. (b) HepG2 cells were transfected without (−) or with PCSK9-V5 in absence (−) or presence SEQ ID NO. 66 or SEQ ID NO. 46. Total LDLR, PCSK9, SEQ ID NO. 66, SEQ ID NO. 46 and β-actin protein levels were analyzed by immunoblotting in cell lysates and conditioned media as indicated. Data are representative of at least three independent experiments.
For Western blot analyses, SDS-polyacrylamide gels were blotted on nitrocellulose membranes (Cat. #162-0115, Bio-Rad), and blocked for 1 h in Tris-Buffered Saline-Tween 20 (TBS-T; 50 mM Tris-HCl, pH 7.5, 150 mM NaCl, 0.1% Tween 20) containing 5% non-fat dry milk. Membranes were then incubated overnight in TBS-T supplemented with 1% non-fat milk and indicated antibodies: rabbit anti-PCSK9 (1:2500, custom made, GenScript), goat anti-human or anti-mouse LDLR (1:1000; Cat. #AF2148 or #A2255, R&D Systems), rat anti-Grp94 (1:30,000), rabbit anti-GRP78 (1:2500; Cat. #ab21685, Abcam), rabbit anti-GFP (1:2000; Cat. #A11122, Life Sciences), mouse anti-V5-tag (1:5000; Cat. #A00641, GenScript), mouse anti-HA-tag (1:5000), rabbit anti-β-actin (1:5000; Cat. #A2066, Sigma-Aldrich). Appropriate HRP-conjugated secondary antibodies (1:10,000, GE healthcare) were used for detection using the Western Lightning Ultra chemiluminescence kit (Cat. #NE1112001EA, PerkinElmer) and BioFlex EC Films (Cat. #CLEC810, InterScience).
To validate this hypothesis, we therefore first tested the effect of extracellular SEQ ID. NO. […]
We next tested whether SEQ ID. […] (Poirier et al., 2009) As PCSK9 was also shown to induce LDLR degradation via an intracellular pathway, (Poirier et al., 2009) we evaluated to ability of SEQ ID. […]

PCSK9 binding to LDLR = target: T1, PCSK9 binding to LDLR (Homo sapiens, UniProt Q8NBP7); test: In vitro PCSK9-LDLR competitive pull-down (immunoprecipitation with mAb-V5); details: 1 μg PCSK9, 1 μg LDLR, preincubation 4 h
T1 construct: made in house; host or cells: HEK293T
T1 sequence (Q8NBP7 153-692): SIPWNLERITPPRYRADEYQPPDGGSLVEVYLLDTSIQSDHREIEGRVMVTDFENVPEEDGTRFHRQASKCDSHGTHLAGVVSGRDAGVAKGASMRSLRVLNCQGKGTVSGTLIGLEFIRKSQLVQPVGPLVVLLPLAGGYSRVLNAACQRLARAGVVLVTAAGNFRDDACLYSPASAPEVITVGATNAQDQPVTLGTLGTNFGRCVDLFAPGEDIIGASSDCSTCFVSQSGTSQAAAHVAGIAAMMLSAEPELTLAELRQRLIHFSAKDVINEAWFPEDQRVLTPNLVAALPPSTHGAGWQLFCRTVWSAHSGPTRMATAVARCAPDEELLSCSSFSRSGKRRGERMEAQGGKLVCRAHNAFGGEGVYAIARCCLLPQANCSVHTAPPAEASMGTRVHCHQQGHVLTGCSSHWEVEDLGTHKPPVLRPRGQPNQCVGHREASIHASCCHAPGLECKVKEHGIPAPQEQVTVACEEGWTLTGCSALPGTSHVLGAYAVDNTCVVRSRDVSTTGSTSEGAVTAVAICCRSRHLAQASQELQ
T1 sequence (Q8NBP7 31-152 partner limits assumed): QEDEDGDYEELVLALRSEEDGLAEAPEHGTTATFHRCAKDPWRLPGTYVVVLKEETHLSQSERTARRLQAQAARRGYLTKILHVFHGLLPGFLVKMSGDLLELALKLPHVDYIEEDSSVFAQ
Experimental: FIG. 6: SEQ ID NO. 6 reduces PCSK9 binding to LDLR in vitro. Left; Coomassie staining of His6 tag purified recombinant SEQ ID NO. 6 and PCSK9 produced as described in Material and Methods. Right; PCSK9-V5-His6 (1 μg) was incubated without (−) or with (+) recombinant SEQ ID NO. 6 (2 μg) in 500 μl of immune-precipitation (IP) buffer (PBS, 1 mM CaCl2, 1% Tween-20 and protease inhibitors) for 4 h at 4° C. on a rotator. Following incubation, 1 μg of recombinant human LDLR ectodomain was added together with 50 μl of A/G-agarose beads and 1 μg of mAb-V5 antibody and incubated with rotation overnight. Samples were then centrifuged at 3,000×g for 5 min and pellets washed three times with 1 ml IP buffer and rotated for 10 min 4° C. and resuspended in 2× Laemmli loading buffer. Samples were separated by SDS-PAGE and immune-blotted as indicated. Data are representative of two independent experiments.
NO. […] NO. 3 might be due to direct competition for PCSK9 binding to the LDLR. To test this hypothesis, we subcloned the SEQ ID. NO. 6 into the pET-24 bacterial expressing vector of which recombinant protein were retrieved from E. coli and purified by metal affinity and size exclusion chromatography. The homogeneity of purified SEQ ID. NO. 6(^˜20 kDa) and recombinant PCSK9 purified from conditioned media of HEK293 transfected cells were assessed by SDS-PAGE and coomassie staining (FIG. 6; left panels). […]

| Molecule | PCSK9-mCherry internalization in LDLR-EGFP expressing cells [1] | Effect on PCSK9-induced LDLR degradation ([2]; HepG2, overnight, 25 nM PCSK9, 0, 10, 25 or 100 nM protein) | Block of exogenously added PCSK9 ([2]; 250 nM, HepG2, exogenous PCSK9 ~6-fold endogenous levels) | Concentration at which maximum effect on total LDLR protein levels was saturated ([2]; HepG2, overnight) | Total LDLR protein levels ([2]; HepG2, overnight, extracellular addition, endogenously secreted PCSK9) | LDLR pull-down with PCSK9 (PCSK9 binding to LDLR) |
| --- | --- | --- | --- | --- | --- | --- |
| SEQ ID. NO. 67: full-length recombinant GRP94 obtained from Enzo Life Sciences (Cat. #ADI-SPP-766) | significantly reduced | reverted in a dose-dependent manner | – | – | – | – |
| SEQ ID. NO. 6: GRP94 CDB-CT domain, 148 aa, recombinant ~20 kDa protein purified from E. coli (protein) YGWSGNMERIMKAQAYQTGKDISTNYYASQKKTFEINPRHPLIRDMLRRIKEDEDDKTVLDLAVVLFETATLRSGYLLPDTKAYGDRIERMLRLSLNIDPDAKVEEEPEEEPEETAEDTTEDTEQDEDEEMDVGTDEEEETAKESTAE | – | – | not sufficient | ≤ 25 nM | significantly increases | partially inhibited |
